Results on one molecule are retold here after US5677146, “Human amyloid protein precursor homolog and kunitz-type inhibitor” (Zymogenetics, Inc., dated 1997).

The target in assay [1] is recombinant human activated protein C (5 nM), Novo Nordisk A/S (human, UniProt P04070). In words: cell-based or functional assay.
For assay [2], the target named is T1, human Factor XIIa (30 nM) (human, UniProt P00748).
T1 sequence 1: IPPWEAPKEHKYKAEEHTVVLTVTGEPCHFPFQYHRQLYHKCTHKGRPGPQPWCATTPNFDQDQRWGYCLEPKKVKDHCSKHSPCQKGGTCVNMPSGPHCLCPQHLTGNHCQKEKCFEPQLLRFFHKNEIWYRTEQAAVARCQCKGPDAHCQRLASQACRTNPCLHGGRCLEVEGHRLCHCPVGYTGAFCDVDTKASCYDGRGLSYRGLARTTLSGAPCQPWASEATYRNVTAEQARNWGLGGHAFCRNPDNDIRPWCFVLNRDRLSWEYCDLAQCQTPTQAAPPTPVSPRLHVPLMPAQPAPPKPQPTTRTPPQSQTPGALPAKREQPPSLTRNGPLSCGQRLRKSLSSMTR
T1 sequence 2: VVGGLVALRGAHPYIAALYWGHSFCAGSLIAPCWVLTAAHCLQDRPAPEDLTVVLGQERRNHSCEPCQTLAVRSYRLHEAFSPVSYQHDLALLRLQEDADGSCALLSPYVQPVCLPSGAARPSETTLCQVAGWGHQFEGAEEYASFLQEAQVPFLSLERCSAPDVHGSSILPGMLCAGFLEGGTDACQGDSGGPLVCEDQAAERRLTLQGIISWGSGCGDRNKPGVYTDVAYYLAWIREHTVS
Put plainly: cell-based or functional assay.

In the next assay the target is human Factor XIa (1 nM) (human, UniProt P03951). Put plainly: cell-based or functional assay.
Another assay concerns the target human Factor Xa (3 nM) (human, UniProt P00742). In words: cell-based or functional assay.
Assay [3] has as its target recombinant human Factor VIIa (300 nM), Novo Nordisk A/S (human, UniProt P08709). Put plainly: cell-based or functional assay.
For the next assay, the target named is bovine trypsin (bovine, UniProt P00760). Put plainly: affinity chromatography of yeast supernatant on bovine trypsin coupled to CNBr-activated Sepharose.

B1: Kunitz-type inhibitor domain of the amyloid protein precursor (other)
chain: EVCSEQAETGPCRAMISRWYFDVTEGKCAPFFYGGCGGNRNNFDTEEYCMAVCGSA
B1: the % Inhibition (commonly the share of the control response that was lost under treatment) is 1% in assay [1]; 8% in assay [2]; 100% in the assay with human Factor XIa (1 nM); 29% with human Factor Xa (3 nM); 7% in assay [3]. The binding result in the assay with bovine trypsin is given as “binds”.
